These are literature values, as cited in publication PMC2879464.

Like-named read-outs stand apart in the source and are kept apart here.

The Kd is the constant that tells how readily two partners part at equilibrium.

Data set [1] deals with cortactin (Homo sapiens) (UniProt Q14247).
For data set [2] the target is unchanged. This is another data set of the same source.

Sequence of UniProt Q14247 (Q14247 whole entry): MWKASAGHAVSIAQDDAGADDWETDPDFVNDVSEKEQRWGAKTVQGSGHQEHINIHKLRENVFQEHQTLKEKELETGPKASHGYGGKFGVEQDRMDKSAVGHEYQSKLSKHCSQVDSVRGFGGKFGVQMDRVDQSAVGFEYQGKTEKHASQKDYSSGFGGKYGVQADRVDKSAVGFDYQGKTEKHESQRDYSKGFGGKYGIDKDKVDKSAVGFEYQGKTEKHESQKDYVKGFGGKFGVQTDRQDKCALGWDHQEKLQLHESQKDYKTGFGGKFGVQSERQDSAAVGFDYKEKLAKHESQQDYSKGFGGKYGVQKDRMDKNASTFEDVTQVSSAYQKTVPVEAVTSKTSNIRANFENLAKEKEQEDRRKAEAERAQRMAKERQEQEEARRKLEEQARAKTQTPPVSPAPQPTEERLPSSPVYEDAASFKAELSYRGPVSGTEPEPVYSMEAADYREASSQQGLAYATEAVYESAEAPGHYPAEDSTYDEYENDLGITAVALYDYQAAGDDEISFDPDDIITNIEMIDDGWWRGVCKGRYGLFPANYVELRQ

Take nmMLCK1 (from UniProt Q15746): the Kd in the data set with cortactin (Homo sapiens) [1] is 1000 nM.
nmMLCK2 (from UniProt Q15746): the Kd in the data set with cortactin (Homo sapiens) [2] was 250 nM.
